# Data taken from PMC10778272 (2023).
# B1: T7-tagged PDZ domain of SYNPO2 (protein)
# chain: MGTGDFICISMTGGAPWGFRLQGGKEQKQPLQVAKIRNQSKASGSGLCEGDEVVSINGNPCADLTYPEVIKLMESITDSLQMLIKRPSSGISEALISENENKNLEHLTHGGYVESTTLQIRPATKTQCTEFFLAPVKTEVPLAENQRSGPDCAGSLKEETGPSYQRAPQMPDSQRGRVAE
# Key:
# [1] = molecular target: T1, GST-Synm-CTΔ (carboxy-terminally truncated synemin, amino acids 1464-1533, fused to GST) (Homo sapiens (Human), UniProt O15061); assay: Western blot overlay
# T1 chain: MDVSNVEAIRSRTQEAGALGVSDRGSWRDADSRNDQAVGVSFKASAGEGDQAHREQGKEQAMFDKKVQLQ
# [2] = molecular target: T2, GST-Synm-CT (fusion protein of the carboxy-terminus of synemin, amino acids 1464-1565, with GST) (Homo sapiens (Human), UniProt O15061); assay: Western blot overlay
# T2 chain: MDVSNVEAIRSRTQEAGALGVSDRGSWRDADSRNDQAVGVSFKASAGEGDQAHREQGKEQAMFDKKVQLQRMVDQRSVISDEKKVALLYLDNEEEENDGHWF
binder,measurement,setting,value
B1,binding result,[1],no binding
same,binding result,[2],binds
